Test results reported in publication PMC10654033.

Molecular target: SpnA (S. pyogenes nuclease A), recombinant, residues Val25 to Leu876 (S. pyogenes) (UniProt Q9A0J7)
Assay: SPR; Biacore T100; SpnA immobilized on a CM5 chip by amino coupling (7247 resonance units); IdeS injected at 10, 20, 40, 80 and 160 μM, 10 μl/min; 100 mM Hepes, 150 mM NaCl, 0.05% surfactant P20, pH 7.4; 1:1 Langmuir binding model

Q: “IdeS (immunoglobulin G-degrading enzyme of Streptococcus pyogenes) (from UniProt Q7DAM2 1-339)” was tested. Which Kd did it give?
A: 53.3 µM
